Some targets named below: IgG3-DNP-E430G (human); IgG4-DNP-E430G (human); IgG2-DNP-E430G (human); IgG1-DNP-E430G (human).
Holding throughout (assay): high-speed atomic force microscopy

What is called stoichiometry N is the number of molecules, sites or subunits per partner or assembly.

Where only a bound is given, the exact number is not on record here.

For IgG3-DNP-E430G (antibody), the stoichiometry N in the assay with IgG3-DNP-E430G (human) was under 6.
IgG4-DNP-E430G (antibody) registered a stoichiometry N in the assay with IgG4-DNP-E430G (human) of under 6.
In the assay with IgG2-DNP-E430G (human), IgG2-DNP-E430G (antibody) came in with a stoichiometry N of under 6.
In the assay with IgG1-DNP-E430G (human), IgG1-DNP-E430G (antibody) registered a stoichiometry N of under 6.

(Values after paper doi:10.1101/2024.03.26.586731.)
